Where a chain is given by its changes, count along the chain named. Names may count otherwise.
How the values were obtained:
Type in all cases: biochemical, E. coli
[1] = substrate: CCCCC(O)(CC(=O)O)C(=O)O; test: Kinetic analysis of LeuCD (LeuB-coupled HTP assay), Variant 6; conditions: other: 2-BM 0-5 mM, pH 8, room temperature, 30 min
[2] = substrate: CCCCCCC(O)(CC(=O)O)C(=O)O; test: as above; conditions: other: 2-HM 0-1.6 mM, pH 8, room temperature, 30 min
[3] = substrate: CCCCC(O)(CC(=O)O)C(=O)O; test: Kinetic analysis of LeuCD (LeuB-coupled HTP assay), Variant 61; conditions: other: 2-BM 0-5 mM, pH 8, room temperature, 30 min
[4] = substrate: CCCCCCC(O)(CC(=O)O)C(=O)O; test: as above; conditions: other: 2-HM 0-1.6 mM, pH 8, room temperature, 30 min
[5] = substrate: CCCCC(O)(CC(=O)O)C(=O)O; test: Kinetic analysis of LeuCD (LeuB-coupled HTP assay), Variant 9; conditions: other: 2-BM 0-5 mM, pH 8, room temperature, 30 min
[6] = substrate: CCCCCCC(O)(CC(=O)O)C(=O)O; test: as above; conditions: other: 2-HM 0-1.6 mM, pH 8, room temperature, 30 min
[7] = substrate: CCCCC(O)(CC(=O)O)C(=O)O; test: Kinetic analysis of LeuCD (LeuB-coupled HTP assay), Variant 5; conditions: other: 2-BM 0-5 mM, pH 8, room temperature, 30 min
[8] = substrate: CCCCCCC(O)(CC(=O)O)C(=O)O; test: as above; conditions: other: 2-HM 0-1.6 mM, pH 8, room temperature, 30 min
[9] = substrate: CC(C)[C@@](O)(CC(=O)O)C(=O)O; test: Kinetic analysis of LeuCD (LeuB-coupled HTP assay), Variant 3 (wild type); conditions: other: 2-IPM 0-0.625 mM, pH 8, room temperature, 30 min
[10] = substrate: CCCCC(O)(CC(=O)O)C(=O)O; test: as above; conditions: other: 2-BM 0-5 mM, pH 8, room temperature, 30 min
[11] = substrate: CCCCCCC(O)(CC(=O)O)C(=O)O; test: as above; conditions: other: 2-HM 0-1.6 mM, pH 8, room temperature, 30 min
[12] = substrate: CCCCC(O)(CC(=O)O)C(=O)O; test: Kinetic analysis of LeuCD (LeuB-coupled HTP assay), Variant 59; conditions: other: 2-BM 0-5 mM, pH 8, room temperature, 30 min
[13] = substrate: CCCCCCC(O)(CC(=O)O)C(=O)O; test: as above; conditions: other: 2-HM 0-1.6 mM, pH 8, room temperature, 30 min
[14] = substrate: CCCCC(O)(CC(=O)O)C(=O)O; test: Kinetic analysis of LeuCD (LeuB-coupled HTP assay), Variant 1; conditions: other: 2-BM 0-5 mM, pH 8, room temperature, 30 min
[15] = substrate: CCCCCCC(O)(CC(=O)O)C(=O)O; test: as above; conditions: other: 2-HM 0-1.6 mM, pH 8, room temperature, 30 min

B1: E. coli isopropylmalate isomerase LeuCD complex, Variant 6 (wt LeuC + L31G-LeuD; parents SEQ ID NO: 1 and SEQ ID NO: 2) (Escherichia coli K-12; L31G) (protein)
chain 1: MGSSHHHHHHSSGMAKTLYEKLFDAHVVYEAENETPLLYIDRHLVHEVTSPQAFDGLRAHGRPVRQPGKTFATMDHNVSTQTKDINACGEMARIQMQELIKNCKEFGVELYDLNHPYQGIVHVMGPEQGVTLPGMTIVCGDSHTATHGAFGALAFGIGTSEVEHVLATQTLKQGRAKTMKIEVQGKAAPGITAKDIVLAIIGKTGSAGGTGHVVEFCGEAIRDLSMEGRMTLCNMAIEMGAKAGLVAPDETTFNYVKGRLHAPKGKDFDDAVAYWKTLQTDEGATFDTVVTLQAEEISPQVTWGTNPGQVISVNDNIPDPASFADPVERASAEKALAYMGLKPGIPLTEVAIDKVFIGSCTNSRIEDLRAAAEIAKGRKVAPGVQALVVPGSGPVKAQAEAEGLDKIFIEAGFEWRLPGCSMCLAMNNDRLNPGERCASTSNRNFEGRQGRGGRTHLVSPAMAAAAAVTGHFADIRNIK
chain 2: MAEKFIKHTGLVVPLDAANVDTDAIIPKQFGQKVTRTGFGAHLFNDWRFLDEKGQQPNPDFVLNFPQYQGASILLARENFGCGSSREHAPWALTDYGFKVVIAPSFADIFYGNSFNNQLLPVKLSDAEVDELFALVKANPGIHFDVDLEAQEVKAGEKTYRFTIDAFRRHCMMNGLDSIGLTLQHDDAIAAYEAKQPAFMN
notes: expression of a His-tagged LeuC having 13 additional amino acids on the N-terminus; made in house; host or cells: E. coli BL21(DE3), whole cell lysate
B1 gave a Km [1] of 8.44 ± 2.4 mM, a kcat [1] of 477 ± 120 h⁻¹ and a kcat/Km [1] of 62 ± 24 mM⁻¹ h⁻¹. It also gave a Km [2] of 0.65 ± 0.04 mM, a kcat [2] of 1237 ± 34 h⁻¹ and a kcat/Km [2] of 1917 ± 129 mM⁻¹ h⁻¹.

B2: E. coli isopropylmalate isomerase LeuCD complex, Variant 61 (wt LeuC + L31G/H88A-LeuD; parents SEQ ID NO: 1 and SEQ ID NO: 2) (Escherichia coli K-12; H88A/L31G) (protein)
chain 1: B1 chain 1
chain 2: B1 chain 2 with H88A
notes: as for B1
Work on B2 yielded a kcat/Km [3] of 1.0 ± 0.0 mM⁻¹ h⁻¹ and a kcat/Km [4] of 22 ± 2 mM⁻¹ h⁻¹.

B3: E. coli isopropylmalate isomerase LeuCD complex, Variant 9 (V35A-LeuC + L31G-LeuD; parents SEQ ID NO: 1 and SEQ ID NO: 2) (Escherichia coli K-12; L31G/V35A) (protein)
chain 1: B1 chain 1 with V48A
chain 2: B1 chain 2
notes: as for B1
In the case of B3, the kcat/Km [5] is reported as 2 ± 0.0 mM⁻¹ h⁻¹, the Km [6] is reported as 0.6 ± 0.034 mM and the kcat [6] is reported as 166 ± 5 h⁻¹. It also gave a kcat/Km [6] of 283 ± 18 mM⁻¹ h⁻¹.

B4: E. coli isopropylmalate isomerase LeuCD complex, Variant 5 (wt LeuC + L31A-LeuD; parents SEQ ID NO: 1 and SEQ ID NO: 2) (Escherichia coli K-12; L31A) (protein)
chain 1: B1 chain 1
chain 2: B1 chain 2 with G31A
notes: as for B1
With B4 the Km [7] was 1.31 ± 0.14 mM, the kcat [7] was 1400 ± 77 h⁻¹ and the kcat/Km [7] was 1077 ± 129 mM⁻¹ h⁻¹. It also gave a Km [8] of 1.4 ± 0.6 mM, a kcat [8] of 35 ± 5 h⁻¹ and a kcat/Km [8] of 29 ± 13 mM⁻¹ h⁻¹.

B5: E. coli isopropylmalate isomerase LeuCD complex, wild type (Variant 3: Wt LeuC, SEQ ID NO: 1 + Wt LeuD, SEQ ID NO: 2) (Escherichia coli K-12) (protein)
chain 1: B1 chain 1
chain 2: B1 chain 2 with G31L
notes: as for B1
B5 gave a Km [9] of 0.068 ± 0.01 mM, a kcat [9] of 1526 ± 58 h⁻¹ and a kcat/Km [9] of 22366 ± 2375 mM⁻¹ h⁻¹. It also gave a Km [10] of 1.33 ± 0.14 mM, a kcat [10] of 6120 ± 323 h⁻¹ and a kcat/Km [10] of 4646 ± 554 mM⁻¹ h⁻¹. For the same protein, the kcat/Km [11] was 4 ± 1 mM⁻¹ h⁻¹.

B6: E. coli isopropylmalate isomerase LeuCD complex, Variant 59 (wt LeuC + L31V/H88A-LeuD; parents SEQ ID NO: 1 and SEQ ID NO: 2) (Escherichia coli K-12; H88A/L31V) (protein)
chain 1: B1 chain 1
chain 2: B1 chain 2 with G31V, H88A
notes: as for B1
Protein B6 has a Km [12] of 2.7 ± 0.4 mM, a kcat [12] of 218 ± 22 h⁻¹ and a kcat/Km [12] of 83 ± 14 mM⁻¹ h⁻¹. For the same protein, the Km [13] was 3.8 ± 0.9 mM, the kcat [13] was 182 ± 37 h⁻¹ and the kcat/Km [13] was 50 ± 16 mM⁻¹ h⁻¹.

B7: E. coli isopropylmalate isomerase LeuCD complex, Variant 1 (V35A-LeuC + wt LeuD; parents SEQ ID NO: 1 and SEQ ID NO: 2) (Escherichia coli K-12; V35A) (protein)
chain 1: B1 chain 1 with V48A
chain 2: B1 chain 2 with G31L
notes: as for B1
In the case of B7, the Km [14] is reported as 3.9 ± 0.7 mM, the kcat [14] is reported as 542 ± 83 h⁻¹ and the kcat/Km [14] is reported as 145 ± 34 mM⁻¹ h⁻¹. It also gave a Km [15] of 3.35 ± 0.75 mM, a kcat [15] of 314 ± 55 h⁻¹ and a kcat/Km [15] of 98 ± 28 mM⁻¹ h⁻¹.
